Measurements reported in patent US20210292422A1 (published 2021).
Where two headings read alike, the source gives them in different places.

Experiments:
Experiment in all cases: BLI (Octet)
LRP6E1E2 [1] = target: T1, LRP6E1E2 (UniProt O75581 20-630)
T1 chain: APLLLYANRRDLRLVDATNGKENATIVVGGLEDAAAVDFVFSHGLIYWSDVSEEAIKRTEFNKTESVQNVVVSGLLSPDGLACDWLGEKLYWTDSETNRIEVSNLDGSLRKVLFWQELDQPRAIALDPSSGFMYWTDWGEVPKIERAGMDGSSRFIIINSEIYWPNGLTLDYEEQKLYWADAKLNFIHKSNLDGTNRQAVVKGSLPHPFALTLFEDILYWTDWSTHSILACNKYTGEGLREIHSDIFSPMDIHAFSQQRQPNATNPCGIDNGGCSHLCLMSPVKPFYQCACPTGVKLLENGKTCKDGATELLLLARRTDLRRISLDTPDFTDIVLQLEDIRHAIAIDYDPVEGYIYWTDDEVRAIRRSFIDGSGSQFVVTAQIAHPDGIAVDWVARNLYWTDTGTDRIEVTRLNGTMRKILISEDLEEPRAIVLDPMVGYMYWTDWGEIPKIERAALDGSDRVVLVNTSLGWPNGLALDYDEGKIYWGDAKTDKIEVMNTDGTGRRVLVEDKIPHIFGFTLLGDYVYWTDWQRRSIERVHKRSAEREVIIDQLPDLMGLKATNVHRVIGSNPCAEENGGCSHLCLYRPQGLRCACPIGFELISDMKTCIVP

Frizzled 1 (Fzd1) = Frizzled 1 (Fzd1) (UniProt Q9UP38 111-230)
LRP6E1E2 [2] = target: T1, LRP6E1E2

B1: F1:5:L1:Fc (bispecific antibody)
chain: EVQLVESGGGLVQPGGSLRLSCAASGFTFSHYTLSWVRQAPGKGLEWVSVISGDGSYTYYADSVKGRFTISSDNSKNTLYLQMNSLRAEDTAVYYCARNFIKYVFANWGQGTLVTVSSGGGGSGGGGSGGGGSDIELTQPPSVSVAPGQTARISCSGDNIGSFYVHWYQQKPGQAPVLVIYDKSNRPSGIPERFSGSNSGNTATLTISGTQAEDEADYYCQSYANTLSLVFGGGTKLTVLGSGSGDVKLVESGGGLVKLGGSLRLSCAASGFSFSTSYMSWVRQTPEKRLELVAAINLNGGSTYYSDTVKGRFTISRDNAKNTLYLQMSSLKSEDTAFYYCASELAGYGTPFAYWGQGTLVTVSAGSAASGSSGGSSSGADIVLTQSPATLSVTPGDSVSLSCKASQSISYNLHWYQQKSHESPRLLIKYTSQSISGIPSRFSGSGSGTDFTLTINNVETEDFGMYFCQQSNSWPLTFGAGTKLEVKGSGSGDKTHTCPPCPAPEAAGGPSVFLFPPKPKDTLMISRTPEVTCVVVDVSHEDPEVKFNWYVDGVEVHNAKTKPREEQYNSTYRVVSVLTVLHQDWLNGKEYKCKVSNKALGAPIEKTISKAKGQPREPQVYTLPPSREEMTKNQVSLTCLVKGFYPSDIAVEWESNGQPENNYKTTPPVLDSDGSFFLYSKLTVDKSRWQQGNVFSCSVMHEALHNHYTQKSLSLSPGK
Question: With B1 as the binder, how does the Kd (LRP6E1E2 [1]) read?
Answer: 5.1 nM

Question: What about the Kd (Frizzled 1 (Fzd1)) of the same binder?
Answer: 0.3 nM

B2: F1:15:L1:Fc (bispecific antibody)
chain: EVQLVESGGGLVQPGGSLRLSCAASGFTFSHYTLSWVRQAPGKGLEWVSVISGDGSYTYYADSVKGRFTISSDNSKNTLYLQMNSLRAEDTAVYYCARNFIKYVFANWGQGTLVTVSSGGGGSGGGGSGGGGSDIELTQPPSVSVAPGQTARISCSGDNIGSFYVHWYQQKPGQAPVLVIYDKSNRPSGIPERFSGSNSGNTATLTISGTQAEDEADYYCQSYANTLSLVFGGGTKLTVLGSGSGGSGSGGSSGGDVKLVESGGGLVKLGGSLRLSCAASGFSFSTSYMSWVRQTPEKRLELVAAINLNGGSTYYSDTVKGRFTISRDNAKNTLYLQMSSLKSEDTAFYYCASELAGYGTPFAYWGQGTLVTVSAGSAASGSSGGSSSGADIVLTQSPATLSVTPGDSVSLSCKASQSISYNLHWYQQKSHESPRLLIKYTSQSISGIPSRFSGSGSGTDFTLTINNVETEDFGMYFCQQSNSWPLTFGAGTKLEVKGSGSGDKTHTCPPCPAPEAAGGPSVFLFPPKPKDTLMISRTPEVTCVVVDVSHEDPEVKFNWYVDGVEVHNAKTKPREEQYNSTYRVVSVLTVLHQDWLNGKEYKCKVSNKALGAPIEKTISKAKGQPREPQVYTLPPSREEMTKNQVSLTCLVKGFYPSDIAVEWESNGQPENNYKTTPPVLDSDGSFFLYSKLTVDKSRWQQGNVFSCSVMHEALHNHYTQKSLSLSPGK
Question: For B2, which Kd (LRP6E1E2 [1]) is on record?
Answer: 5.5 nM

Question: What about the Kd (Frizzled 1 (Fzd1)) of the same binder?
Answer: 0.4 nM

B3: αGFP:5:L1:Fc (bispecific antibody)
chain: QVQLVESGGGLVQPGGSLRLSCAASGFTFSRYGMHWVRQAPGKGLEWVSGISSIGSNTYYADSVKGRFTISRDNSKNTLYLQMNSLRAEDTAVYYCARWYKTYIDVWGQGTLVTVSSGGGGSGGGGSGGGGSDIELTQPPSVSVAPGQTARISCSGDNLGKKYVYWYQQKPGQAPVLVIYGDDERPSGIPERFSGSNSGNTATLTISGTQAEDEADYYCASYDSSHILIVFGGGTKLTVLGSGSGDVKLVESGGGLVKLGGSLRLSCAASGFSFSTSYMSWVRQTPEKRLELVAAINLNGGSTYYSDTVKGRFTISRDNAKNTLYLQMSSLKSEDTAFYYCASELAGYGTPFAYWGQGTLVTVSAGSAASGSSGGSSSGADIVLTQSPATLSVTPGDSVSLSCKASQSISYNLHWYQQKSHESPRLLIKYTSQSISGIPSRFSGSGSGTDFTLTINNVETEDFGMYFCQQSNSWPLTFGAGTKLEVKGSGSGDKTHTCPPCPAPEAAGGPSVFLFPPKPKDTLMISRTPEVTCVVVDVSHEDPEVKFNWYVDGVEVHNAKTKPREEQYNSTYRVVSVLTVLHQDWLNGKEYKCKVSNKALGAPIEKTISKAKGQPREPQVYTLPPSREEMTKNQVSLTCLVKGFYPSDIAVEWESNGQPENNYKTTPPVLDSDGSFFLYSKLTVDKSRWQQGNVFSCSVMHEALHNHYTQKSLSLSPGK
Question: For B3, which Kd (LRP6E1E2 [2]) is on record?
Answer: 98 nM

B4: L1:5:F1:Fc (bispecific antibody)
chain: DVKLVESGGGLVKLGGSLRLSCAASGFSFSTSYMSWVRQTPEKRLELVAAINLNGGSTYYSDTVKGRFTISRDNAKNTLYLQMSSLKSEDTAFYYCASELAGYGTPFAYWGQGTLVTVSAGSAASGSSGGSSSGADIVLTQSPATLSVTPGDSVSLSCKASQSISYNLHWYQQKSHESPRLLIKYTSQSISGIPSRFSGSGSGTDFTLTINNVETEDFGMYFCQQSNSWPLTFGAGTKLEVKGSGSGEVQLVESGGGLVQPGGSLRLSCAASGFTFSHYTLSWVRQAPGKGLEWVSVISGDGSYTYYADSVKGRFTISSDNSKNTLYLQMNSLRAEDTAVYYCARNFIKYVFANWGQGTLVTVSSGGGGSGGGGSGGGGSDIELTQPPSVSVAPGQTARISCSGDNIGSFYVHWYQQKPGQAPVLVIYDKSNRPSGIPERFSGSNSGNTATLTISGTQAEDEADYYCQSYANTLSLVFGGGTKLTVLGSGSGDKTHTCPPCPAPEAAGGPSVFLFPPKPKDTLMISRTPEVTCVVVDVSHEDPEVKFNWYVDGVEVHNAKTKPREEQYNSTYRVVSVLTVLHQDWLNGKEYKCKVSNKALGAPIEKTISKAKGQPREPQVYTLPPSREEMTKNQVSLTCLVKGFYPSDIAVEWESNGQPENNYKTTPPVLDSDGSFFLYSKLTVDKSRWQQGNVFSCSVMHEALHNHYTQKSLSLSPGK
Question: What does the source list for B4?
Answer: Kd (LRP6E1E2 [1]): 4.9 nM; Kd (Frizzled 1 (Fzd1)): 0.6 nM

B5: L1:15:F1:Fc (bispecific antibody)
chain: DVKLVESGGGLVKLGGSLRLSCAASGFSFSTSYMSWVRQTPEKRLELVAAINLNGGSTYYSDTVKGRFTISRDNAKNTLYLQMSSLKSEDTAFYYCASELAGYGTPFAYWGQGTLVTVSAGSAASGSSGGSSSGADIVLTQSPATLSVTPGDSVSLSCKASQSISYNLHWYQQKSHESPRLLIKYTSQSISGIPSRFSGSGSGTDFTLTINNVETEDFGMYFCQQSNSWPLTFGAGTKLEVKGSGSGGSGSGGSSGGEVQLVESGGGLVQPGGSLRLSCAASGFTFSHYTLSWVRQAPGKGLEWVSVISGDGSYTYYADSVKGRFTISSDNSKNTLYLQMNSLRAEDTAVYYCARNFIKYVFANWGQGTLVTVSSGGGGSGGGGSGGGGSDIELTQPPSVSVAPGQTARISCSGDNIGSFYVHWYQQKPGQAPVLVIYDKSNRPSGIPERFSGSNSGNTATLTISGTQAEDEADYYCQSYANTLSLVFGGGTKLTVLGSGSGDKTHTCPPCPAPEAAGGPSVFLFPPKPKDTLMISRTPEVTCVVVDVSHEDPEVKFNWYVDGVEVHNAKTKPREEQYNSTYRVVSVLTVLHQDWLNGKEYKCKVSNKALGAPIEKTISKAKGQPREPQVYTLPPSREEMTKNQVSLTCLVKGFYPSDIAVEWESNGQPENNYKTTPPVLDSDGSFFLYSKLTVDKSRWQQGNVFSCSVMHEALHNHYTQKSLSLSPGK
Question: For B5, which Kd (LRP6E1E2 [1]) is on record?
Answer: 5.6 nM

Question: What about the Kd (Frizzled 1 (Fzd1)) of the same binder?
Answer: 0.8 nM

B6: L1:10:F1:Fc (bispecific antibody)
chain: DVKLVESGGGLVKLGGSLRLSCAASGFSFSTSYMSWVRQTPEKRLELVAAINLNGGSTYYSDTVKGRFTISRDNAKNTLYLQMSSLKSEDTAFYYCASELAGYGTPFAYWGQGTLVTVSAGSAASGSSGGSSSGADIVLTQSPATLSVTPGDSVSLSCKASQSISYNLHWYQQKSHESPRLLIKYTSQSISGIPSRFSGSGSGTDFTLTINNVETEDFGMYFCQQSNSWPLTFGAGTKLEVKGSGSGGSGSGEVQLVESGGGLVQPGGSLRLSCAASGFTFSHYTLSWVRQAPGKGLEWVSVISGDGSYTYYADSVKGRFTISSDNSKNTLYLQMNSLRAEDTAVYYCARNFIKYVFANWGQGTLVTVSSGGGGSGGGGSGGGGSDIELTQPPSVSVAPGQTARISCSGDNIGSFYVHWYQQKPGQAPVLVIYDKSNRPSGIPERFSGSNSGNTATLTISGTQAEDEADYYCQSYANTLSLVFGGGTKLTVLGSGSGDKTHTCPPCPAPEAAGGPSVFLFPPKPKDTLMISRTPEVTCVVVDVSHEDPEVKFNWYVDGVEVHNAKTKPREEQYNSTYRVVSVLTVLHQDWLNGKEYKCKVSNKALGAPIEKTISKAKGQPREPQVYTLPPSREEMTKNQVSLTCLVKGFYPSDIAVEWESNGQPENNYKTTPPVLDSDGSFFLYSKLTVDKSRWQQGNVFSCSVMHEALHNHYTQKSLSLSPGK
Question: What does the source list for B6?
Answer: Kd (LRP6E1E2 [1]): 5.9 nM; Kd (Frizzled 1 (Fzd1)): 0.7 nM

B7: F1:10:L1:Fc (bispecific antibody)
chain: EVQLVESGGGLVQPGGSLRLSCAASGFTFSHYTLSWVRQAPGKGLEWVSVISGDGSYTYYADSVKGRFTISSDNSKNTLYLQMNSLRAEDTAVYYCARNFIKYVFANWGQGTLVTVSSGGGGSGGGGSGGGGSDIELTQPPSVSVAPGQTARISCSGDNIGSFYVHWYQQKPGQAPVLVIYDKSNRPSGIPERFSGSNSGNTATLTISGTQAEDEADYYCQSYANTLSLVFGGGTKLTVLGSGSGGSGSGDVKLVESGGGLVKLGGSLRLSCAASGFSFSTSYMSWVRQTPEKRLELVAAINLNGGSTYYSDTVKGRFTISRDNAKNTLYLQMSSLKSEDTAFYYCASELAGYGTPFAYWGQGTLVTVSAGSAASGSSGGSSSGADIVLTQSPATLSVTPGDSVSLSCKASQSISYNLHWYQQKSHESPRLLIKYTSQSISGIPSRFSGSGSGTDFTLTINNVETEDFGMYFCQQSNSWPLTFGAGTKLEVKGSGSGDKTHTCPPCPAPEAAGGPSVFLFPPKPKDTLMISRTPEVTCVVVDVSHEDPEVKFNWYVDGVEVHNAKTKPREEQYNSTYRVVSVLTVLHQDWLNGKEYKCKVSNKALGAPIEKTISKAKGQPREPQVYTLPPSREEMTKNQVSLTCLVKGFYPSDIAVEWESNGQPENNYKTTPPVLDSDGSFFLYSKLTVDKSRWQQGNVFSCSVMHEALHNHYTQKSLSLSPGK
Question: Which Kd (LRP6E1E2 [1]) does the source give for B7 here?
Answer: 5.4 nM

Question: And the Kd (Frizzled 1 (Fzd1))?
Answer: 0.4 nM
